Results on four molecules are retold here after patent US20090162366A1 (KIRIN PHARMA, published 2009).

T1: OVA (UniProt P01012 2-386)
T1 sequence: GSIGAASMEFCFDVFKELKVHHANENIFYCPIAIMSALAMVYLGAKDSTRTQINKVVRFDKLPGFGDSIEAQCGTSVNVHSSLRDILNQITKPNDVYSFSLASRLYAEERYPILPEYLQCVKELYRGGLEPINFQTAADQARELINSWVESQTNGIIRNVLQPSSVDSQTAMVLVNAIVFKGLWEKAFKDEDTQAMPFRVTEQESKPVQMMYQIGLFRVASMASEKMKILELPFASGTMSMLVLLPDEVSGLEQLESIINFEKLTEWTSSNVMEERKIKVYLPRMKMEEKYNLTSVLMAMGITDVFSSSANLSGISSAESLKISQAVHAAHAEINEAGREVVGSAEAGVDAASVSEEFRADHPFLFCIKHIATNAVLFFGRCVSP

B1: L66 (antibody, V domains shown)
VH: EVQLVESGGGVVRPGGSLRLSCAASGFTFDDYGMSWVRQAPGKGLEWVSGINWNGGSTGYADSVKGRFTISRDNAKNSLYLQMNSLRAEDTALYYCARDRVTMVRGVIMDYYGMDVWGQGTTVTVSS
VL: QTVVTQEPSLTVSPRGTVTLTCSSSTGAVTSGYYPGWFQLKPGQAPMSLIYSARKKHSWTPARFSGSLLGGKAALTLSGVQPEDEAEYYCLLYYGGAYVFGTGTKVTVLG
B2: N547 (antibody, V domains shown)
VH: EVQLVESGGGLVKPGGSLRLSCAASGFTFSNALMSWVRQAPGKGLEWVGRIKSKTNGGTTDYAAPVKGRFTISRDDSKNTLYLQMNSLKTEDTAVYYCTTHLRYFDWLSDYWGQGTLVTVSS
VL: QSVLTQPPSMSAAPGQKVTISCSGSSSNIGNNYISWYQQLPGTAPKVLIYDNNKRPSGIPDRFSGSKSGTSATLGITGLQTGDEADYYCGSWDSSLSAGVFGTGTKVTVLG
B3: C40 (antibody, V domains shown)
VH: QLQLQESGPGLVKPSETLSLTCTVSGGSISSSFYYCGWIRQPPGKGLEWIGSIYYRGSTYYNPSLKSRVTISVDTSKNQFSLKLSSVTAADTAVYYCARRVTMVRGVKGDYFDYWGQGTLVTVSS
VL: DIQMTQSPSSLSASVGDRVTITCRASQGISSWLAWYQQKPEKVPKSLIYAASSLQSGVPSRFSGSGSGTDFTLTISSLQPEDFATYYCQQYNYYPLTFGGGTKVEIKR
B4: C40G1 (antibody, V domains shown)
VH: B3 VH
VL: B3 VL

In the first assay the target is T1, OVA. The assay can be described thus: ELISA. (In general: ELISA stands for enzyme-linked immunosorbent assay.)
For the molecule B1, the binding result was “no binding (tested: below 0.1 at OD450nm)”.

On to B2, for which the binding result was “no binding (tested: below 0.1 at OD450nm)”.

As to B3, the binding result is given as “no binding (tested: below 0.1 at OD450nm)”.

With B4, the binding result was “no binding (tested: below 0.1 at OD450nm)”.

The target in another assay is BSA (UniProt P02769 25-607). The assay can be described thus: ELISA.
Chain of BSA (P02769 25-607 limits assumed): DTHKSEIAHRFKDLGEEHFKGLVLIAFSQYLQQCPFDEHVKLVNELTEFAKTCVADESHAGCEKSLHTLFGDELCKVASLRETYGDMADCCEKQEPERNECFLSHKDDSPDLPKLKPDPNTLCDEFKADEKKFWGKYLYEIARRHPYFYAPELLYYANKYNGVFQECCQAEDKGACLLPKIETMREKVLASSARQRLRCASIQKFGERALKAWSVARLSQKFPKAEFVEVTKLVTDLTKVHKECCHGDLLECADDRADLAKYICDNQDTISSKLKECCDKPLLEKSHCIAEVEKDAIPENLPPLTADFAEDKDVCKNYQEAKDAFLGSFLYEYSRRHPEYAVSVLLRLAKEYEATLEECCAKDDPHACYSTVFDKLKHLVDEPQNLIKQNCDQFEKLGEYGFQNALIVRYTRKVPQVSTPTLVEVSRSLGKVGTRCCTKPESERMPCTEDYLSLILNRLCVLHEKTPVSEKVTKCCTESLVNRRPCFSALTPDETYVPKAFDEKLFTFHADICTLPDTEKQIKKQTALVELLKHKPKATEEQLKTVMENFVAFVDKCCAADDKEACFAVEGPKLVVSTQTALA
For B1, the binding result is recorded as “no binding (tested: below 0.1 at OD450nm)”.

Regarding B2, the binding result is recorded as “no binding (tested: below 0.1 at OD450nm)”.

Regarding B3, the binding result is “no binding (tested: below 0.1 at OD450nm)”.

With B4, the binding result was “no binding (tested: below 0.1 at OD450nm)”.
